According to US20220235118A1 (IMMUNOME, published 2022):

Assays:
[1] = molecular target: Spike protein D614G (SARS-CoV-2/human/Germany/BavPat 1/2020) on pseudovirus or live virus (SARS-CoV-2, UniProt P0DTC2 14-1273); test: cell-based or functional assay
[2] = molecular target: Spike protein of the U.K. (B.1.1.7, Alpha) variant on pseudovirus or live virus (SARS-CoV-2, UniProt P0DTC2 14-1273); test: cell-based or functional assay
[3] = molecular target: T1, SARS-CoV-2 Spike S1 domain D614G (SARS-CoV-2, UniProt P0DTC2 16-685); test: HTRF, soluble S1 construct
T1 construct: domain: S1

[4] = molecular target: T2, SARS-CoV-2 Spike S1 domain A222S, D614G (SARS-CoV-2, UniProt P0DTC2 16-685); test: HTRF, soluble S1 construct
T2 construct: domain: S1; also called Spanish (A222S, D614G)

[5] = molecular target: T3, SARS-CoV-2 Spike S1 domain K417N, E484K, N501Y, D614G (SARS-CoV-2, UniProt P0DTC2 16-685); test: HTRF, soluble S1 construct
T3 construct: domain: S1; also called S. African (K417N, E484K, N501Y, D614G); B.1.351

[6] = molecular target: T4, SARS-CoV-2 Spike S1 domain ΔHV69/70, ΔY144, N501Y, A570D, D614G, P681H (SARS-CoV-2, UniProt P0DTC2 16-685); test: HTRF, soluble S1 construct
T4 construct: domain: S1; also called U.K. (B.1.1.7); DHV69/70, DY144, N501Y, A570D, D614G, P681H

[7] = molecular target: T5, SARS-CoV-2 Spike S1 domain ΔHV69/70, Y453F, D614G (SARS-CoV-2, UniProt P0DTC2 16-685); test: HTRF, soluble S1 construct
T5 construct: domain: S1; also called Denmark (ΔHV69/70, Y453F, D614G); DHV69/70, Y453F, D614G

[8] = molecular target: T1, SARS-CoV-2 Spike S1 domain D614G; test: HTRF, soluble S1 construct; remark: listed apart in the source
[9] = molecular target: T2, SARS-CoV-2 Spike S1 domain A222S, D614G; test: HTRF, soluble S1 construct; remark: listed apart in the source
[10] = molecular target: T3, SARS-CoV-2 Spike S1 domain K417N, …; test: HTRF, soluble S1 construct; remark: listed apart in the source
[11] = molecular target: T6, SARS-CoV-2 Spike S1 domain ΔHV69/70, N501Y, D614G (SARS-CoV-2, UniProt P0DTC2 16-685); test: HTRF, soluble S1 construct
T6 construct: domain: S1; also called U.K. partial (ΔHV69/70, N501Y D614G)

[12] = molecular target: T4, SARS-CoV-2 Spike S1 domain ΔHV69/70, …; test: HTRF, soluble S1 construct; remark: listed apart in the source
[13] = molecular target: T5, SARS-CoV-2 Spike S1 domain ΔHV69/70, …; test: HTRF, soluble S1 construct; remark: listed apart in the source
[14] = molecular target: T7, SARS-CoV-2 Spike RBD E406Q (SARS-CoV-2, UniProt P0DTC2 319-541); test: HTRF, soluble RBD construct
T7 construct: domain: RBD

[15] = molecular target: T8, SARS-CoV-2 Spike RBD N439K (SARS-CoV-2, UniProt P0DTC2 319-541); test: HTRF, soluble RBD construct
T8 construct: domain: RBD

[16] = molecular target: T7, SARS-CoV-2 Spike RBD E406Q; test: HTRF, soluble RBD construct; remark: listed apart in the source
[17] = molecular target: T9, SARS-CoV-2 Spike RBD K417N (SARS-CoV-2, UniProt P0DTC2 319-541); test: HTRF, soluble RBD construct
T9 construct: domain: RBD

[18] = molecular target: T10, SARS-CoV-2 Spike RBD N501Y (SARS-CoV-2, UniProt P0DTC2 319-541); test: HTRF, soluble RBD construct
T10 construct: domain: RBD

[19] = molecular target: T11, SARS-CoV-2 Spike RBD Y453F (SARS-CoV-2, UniProt P0DTC2 319-541); test: HTRF, soluble RBD construct
T11 construct: domain: RBD

[20] = molecular target: T12, SARS-CoV-2 Spike RBD A352S (SARS-CoV-2, UniProt P0DTC2 319-541); test: HTRF, soluble RBD construct
T12 construct: domain: RBD

[21] = molecular target: T13, SARS-CoV-2 Spike RBD A475V (SARS-CoV-2, UniProt P0DTC2 319-541); test: HTRF, soluble RBD construct
T13 construct: domain: RBD

[22] = molecular target: T14, SARS-CoV-2 Spike RBD E484Q (SARS-CoV-2, UniProt P0DTC2 319-541); test: HTRF, soluble RBD construct
T14 construct: domain: RBD

[23] = molecular target: T15, SARS-CoV-2 Spike RBD E484K (SARS-CoV-2, UniProt P0DTC2 319-541); test: HTRF, soluble RBD construct
T15 construct: domain: RBD

[24] = molecular target: T16, SARS-CoV-2 Spike RBD L452R (SARS-CoV-2, UniProt P0DTC2 319-541); test: HTRF, soluble RBD construct
T16 construct: domain: RBD

[25] = molecular target: T17, SARS-CoV-2 Spike RBD K444R (SARS-CoV-2, UniProt P0DTC2 319-541); test: HTRF, soluble RBD construct
T17 construct: domain: RBD

[26] = molecular target: T18, SARS-CoV-2 Spike RBD F486S (SARS-CoV-2, UniProt P0DTC2 319-541); test: HTRF, soluble RBD construct
T18 construct: domain: RBD

Binder | IC50, neutralization of live virus in a virus internalization assay [1] [nM] | IC80, neutralization of live virus in a virus internalization assay [1] [nM] | IC90, neutralization of live virus in a virus internalization assay [1] [nM] | IC50, neutralization of live virus in a virus internalization assay [2] [nM] | IC80, neutralization of live virus in a virus internalization assay [2] [nM] | IC90, neutralization of live virus in a virus internalization assay [2] [nM] | fold over background [3] [fold over background] | fold over background [4] [fold over background] | fold over background [5] [fold over background] | fold over background [6] [fold over background] | fold over background [7] [fold over background] | EC50 [8] [nM] | EC50 [9] [nM] | EC50 [10] [nM] | EC50 [11] [nM] | EC50 [12] [nM] | EC50 [13] [nM] | fold over background [14] [fold over background] | EC50 [15] [nM] | EC50 [16] [nM] | other results
PR194_00232 (antibody, V domains shown, also called IMM20190; PR194_00190) VH: EVQLVESGGGLVQPGGSLRLSCSASGFTVSSNYMSWVRQAPRKGLEWVSVIYAGGSTFYADSVKGRFTISRDNSKNTLLLQMNSLRAEDTAVYYCARDRGGYLDYWGQGTLVTVSS VL: DIQMTQSPSSLSASVGDRVTITCRASQGISNYLAWYQQKPGKVPKLLIYAASTLQSGVPSRFSGSGSGTDFTLTISSLQPEDVATYYCQKYNSAPGLTFGGGTKVEIK | 0.35 | 1.43 | 3.06 | 2.66 | 13.7 | > 394 | 4.84 | 8.47 | 1.12 | 3.91 | 8.18 | 0.0627 | 0.0491 | 0.23 | 0.396 | > 0.5 | 0.0472 | 8.81 | 0.0689 | 0.0677 | EC50 [17]: > 0.5 nM; EC50 [18]: 0.279 nM; EC50 [19]: 0.0646 nM; EC50 [20]: 0.0219 nM; EC50 [21]: 0.0724 nM; EC50 [22]: 0.0524 nM; EC50 [23]: 0.0334 nM; EC50 [24]: 0.0318 nM; EC50 [25]: 0.0258 nM; EC50 [26]: 0.0334 nM
PR193_00018 (antibody, V domains shown, also called IMM20184; IMM200184) VH: EVQLVESGGGLVQPGGSLRLSCSASGFTFSSFWMSWVRQAPGKGLEWVATIREDGSEKYYVDSVKGRFSISRDNAKNSLYLQMNSLRAEDTAVYYCARSKWLRGSFDYWGQGTLVTVSS VL: NFMLTQPHSVSESPGKTVTISCTRRSGSIASNYVQWYQQRPGSAPTTVIYEDNQRPSGVPDRFSGSIDSSSNSASLTISGLQTEDEADYYCQSYDSSNPPGASWVFGGGTKLTVL | 33.8 | 126 | 236 | 43.3 | > 394 | > 394 | 4.93 | 5.43 | 4.64 | 4.15 | 5.61 | 0.0397 | 0.0269 | 0.0267 | 0.0143 | 0.0455 | 0.0316 | 6.58 | 0.051 | 0.0261 | EC50 [17]: 0.0437 nM; EC50 [18]: 0.0398 nM; EC50 [19]: 0.0494 nM; EC50 [20]: 0.0263 nM; EC50 [21]: 0.0279 nM; EC50 [22]: 0.0216 nM; EC50 [23]: 0.0205 nM; EC50 [24]: 0.0436 nM; EC50 [25]: 0.0194 nM; EC50 [26]: 0.0221 nM
PR200_00622 (antibody, V domains shown, also called IMM20253; PR200_00253) VH: QVQLVESGGGVVQPGRSLRLSCTASGFTFSTYGMHWVRQAPGKGLEWVAVISYDGSSKHYAESVKGRFTISRDNSNNTLYLQMNRLRAEDTAVYYCARDGQPPGWGNYFDYWGQGTLVTVAS VL: SYVLTQPPSVSVAPGKTARITCGGNGIGSKSVYWYQQKPGQAPEVVVYDDSDRPSGIPERFSGSNSGNTATLTISRVEAGDEADYYCQVWDSSSDPWVFGGGTKLTVL | 39.4 | 151 | 289 | 1.38 | 61.1 | 219 | 6.1 | 6.64 | 6.28 | 5.92 | 7 | 0.0624 | 0.0449 | 0.0248 | 0.0216 | 0.0624 | 0.0664 | 7.6 | 0.0534 | 0.0406 | EC50 [17]: 0.0674 nM; EC50 [18]: 0.0585 nM; EC50 [19]: 0.0626 nM; EC50 [20]: 0.0317 nM; EC50 [21]: 0.033 nM; EC50 [22]: 0.0238 nM; EC50 [23]: 0.0316 nM; EC50 [24]: 0.034 nM; EC50 [25]: 0.0261 nM; EC50 [26]: 0.0259 nM
